From patent publication US20260224736A1 (Sanofi, published 2026) come the findings set out here.

The target in experiment [1] is T1, human CD117 (human, UniProt P10721 26-976).
T1 construct: whole, on cells; The target is presented on primary human HSCs, either in vitro or engrafted in NSG mice; No recombinant CD117 was used; also called HuCD117; c-kit
The experiment in a line: flow cytometry of primary human HSCs treated with Fab-conjugated KC3 LNPs; DiI fluorescence as measure of LNP binding. An excerpt:
(§1) For conjugation with full-length antibodies, the LNPs were fused with a streptavidin moiety, and the conjugated full-size antibodies were tagged with biotin. Specifically, lysine groups on the streptavidin were reacted with Traut's reagent to covalently attach thiol groups. The thiolated streptavidin was then conjugated to DSPE-PEG(2k)-maleimide via covalent coupling between the maleimide group and the thiol groups attached to the streptavidin. The streptavidin-fused lipid was then reacted with the biotinylated antibody. Finally, the lipid-streptavidin-antibody conjugate was inserted into the LNP by incubation at 60° C. for 1 hour. The LNPs also incorporated a fluorescent lipid dye,′,1′-Dioctadecyl-3,′,3′,3′-Tetramethylindocarbocyanine-5,5′-Disulfonic Acid (DiIC(18)5-DS). The GFP mRNA was used to measure transfection, as the mRNA must enter the cell and escape the endosome to be transcribed into protein, allowing for fluorescence. The DiIC(18)5-DS was used as a measure of LNP targeting because the cells will have DiI fluorescence so long as the LNPs are capable of binding to the HSCs. Therefore, GFP expression provided a measure of LNP transfection while DiI positive events were representative of Fabs that target H—SCs. […] The HSCs were incubated with the LNPs for 24 and 72 hours, after which the GFP fluorescence and DiI fluorescence were measured using flow cytometry.
In general terms: Flow cytometry measures light scatter and fluorescence of single cells or particles in a stream.

The target in experiment [2] is T2, human CD105 (human, UniProt P17813 26-658).
T2 construct: whole, on cells; The target is presented on primary human HSCs; also called HuCD105; endoglin
T2 sequence (looked up): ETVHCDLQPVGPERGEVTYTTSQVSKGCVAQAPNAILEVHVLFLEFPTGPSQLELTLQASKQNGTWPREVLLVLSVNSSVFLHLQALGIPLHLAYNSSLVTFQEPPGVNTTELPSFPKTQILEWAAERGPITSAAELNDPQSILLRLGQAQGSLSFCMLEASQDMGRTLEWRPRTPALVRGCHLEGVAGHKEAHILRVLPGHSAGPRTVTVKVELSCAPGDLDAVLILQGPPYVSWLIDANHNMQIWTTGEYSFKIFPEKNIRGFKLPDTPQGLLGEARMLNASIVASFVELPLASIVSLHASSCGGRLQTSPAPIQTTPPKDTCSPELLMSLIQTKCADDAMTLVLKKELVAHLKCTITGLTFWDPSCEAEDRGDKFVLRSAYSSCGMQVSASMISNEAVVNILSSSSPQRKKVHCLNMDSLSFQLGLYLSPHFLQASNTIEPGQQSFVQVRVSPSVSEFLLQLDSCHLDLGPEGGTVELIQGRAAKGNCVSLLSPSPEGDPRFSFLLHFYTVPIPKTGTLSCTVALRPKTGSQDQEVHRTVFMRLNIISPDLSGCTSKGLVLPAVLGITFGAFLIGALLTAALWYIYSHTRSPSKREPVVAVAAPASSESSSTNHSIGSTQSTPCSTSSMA
The description is as above.
Description: as §1

T1 sequence (P10721 26-976): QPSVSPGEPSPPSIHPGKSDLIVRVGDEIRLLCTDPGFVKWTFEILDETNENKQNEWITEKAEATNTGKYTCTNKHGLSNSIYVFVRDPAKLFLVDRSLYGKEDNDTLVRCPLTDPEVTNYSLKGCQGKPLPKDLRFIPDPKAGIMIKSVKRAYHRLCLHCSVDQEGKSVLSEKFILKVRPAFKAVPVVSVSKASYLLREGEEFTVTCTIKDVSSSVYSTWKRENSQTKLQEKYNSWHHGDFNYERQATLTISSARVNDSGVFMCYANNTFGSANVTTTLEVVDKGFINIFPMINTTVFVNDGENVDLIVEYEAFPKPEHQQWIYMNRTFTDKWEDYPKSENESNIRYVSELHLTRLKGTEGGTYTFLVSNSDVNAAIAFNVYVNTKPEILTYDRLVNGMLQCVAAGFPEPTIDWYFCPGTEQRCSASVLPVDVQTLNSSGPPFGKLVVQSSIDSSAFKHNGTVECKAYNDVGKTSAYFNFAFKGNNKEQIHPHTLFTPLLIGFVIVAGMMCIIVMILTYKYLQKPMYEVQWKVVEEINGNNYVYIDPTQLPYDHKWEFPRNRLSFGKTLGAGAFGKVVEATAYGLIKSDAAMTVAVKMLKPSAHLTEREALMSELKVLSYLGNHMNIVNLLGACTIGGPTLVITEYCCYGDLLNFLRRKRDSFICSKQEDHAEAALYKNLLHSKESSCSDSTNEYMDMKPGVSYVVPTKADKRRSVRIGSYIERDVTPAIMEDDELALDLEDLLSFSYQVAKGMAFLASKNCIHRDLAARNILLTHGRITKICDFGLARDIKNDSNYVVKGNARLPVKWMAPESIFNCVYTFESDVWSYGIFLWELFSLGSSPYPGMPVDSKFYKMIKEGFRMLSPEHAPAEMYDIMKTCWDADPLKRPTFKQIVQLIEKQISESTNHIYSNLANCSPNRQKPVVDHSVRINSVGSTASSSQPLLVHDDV

B1: anti-HuCD117 Ab2 Fab bDS (Fab, V domains shown)
VH: EVQLVESGGGLVQPGGSLRLSCAASGFTFSDADMDWVRQAPGKGLEWVGRTRNKAGSYTTEYAASVKGRFTISRDDSKNSLYLQMNSLKTEDTAVYYCAREPKYWIDFDLWGRGTLVTVSS
VL: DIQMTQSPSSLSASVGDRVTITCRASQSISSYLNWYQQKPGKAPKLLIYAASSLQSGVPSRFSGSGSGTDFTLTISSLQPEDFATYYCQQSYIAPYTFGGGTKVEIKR
modifications: C-terminal cysteine in the heavy chain covalently coupled to DSPE-PEG(2k)-maleimide (lipid conjugate inserted into the LNP)
notes: Tested only as a lipid-Fab conjugate on the surface of LNPs
On to B1, for which, in experiment [1], the binding result is recorded as “binds”.

B2: anti-HuCD105 Ab3 Fab bDS (Fab, V domains shown)
VH: EVKLEESGGGLVQPGGSMKLSCAASGFTFSDAWMDWVRQSPEKGLEWVAEIRSKASNHATYYAESVKGRFTISRDDSKSSVYLQMNSLRAEDTGIYYCTRWRRFFDSWGQGTTLTVSS
VL: QIVLSQSPAILSASPGEKVTMTCRASSSVSYMHWYQQKPGSSPKPWIYATSNLASGVPVRFSGSGSGTSYSLTISRVEAEDAATYYCQQWSSNPLTFGAGTKLELKR
modifications: C-terminal cysteine in the heavy chain covalently coupled to DSPE-PEG(2k)-maleimide (lipid conjugate inserted into the LNP)
notes: as for B1
On to B2, for which, in experiment [2], the binding result is “binds”.
